The DeepSol protein solubility set

test: soluble on expression in E. coli; label from the status in PepcDB or PDB records

Row | Sequence | soluble on expression in E. coli
1 | MSLSIFTDLNTSRKWQIDQWLSAVNSHIEKIQQYGHSVVNPTPLLADGFEIKTQSPVVWQFPDGHDAPISNFASQQNWLRLLISMSVITETEKYRHLAFCQSEYFLNRFVDENSGLFYWGGHRFINLDTLASEGPESKSMVHELKHHLPYYEFLHQVNPEKTRHFIQGFWNAHVEDWSCLDLGRHGDYARQRDPDVFLHSRHDVVTPANWPELPLTKGLTFVNAGTDLIYAAFVYARHTGDAHAAAWGKHLYRQYVLARNPETGMPVYQFSSPLQRQPVPADDNQTQSWFGDRAQRQFGPEFGAIAREANVLFRDMRPLLIDNPLAMLDILRHQPDAEILTWVIAGLKNYYQYAYDVNSNSLRPMWNNGQDMTDYCFKRDGYYGKAGTVLKPFPLEGDYLLPLVRAWLLSDDDDLHTLIVTMLSRLEKQGIHQSASPFLLLAITELAHAKQSAQWAEYAWQMAEILFKRYFHHGLFVRSEHHRYVRLDDPFPAILLTLIAACRNKWSEVPAVLTQGGYIHGDYRINGESRVIYDTGIYLPRKINEGHHHHHH | not soluble
2 | MNNLMVIDGIEVRRDAYGRYSLNDLHRAAGSLDKHKPAFWLRNEQTERLISELQICNSVNIEPVNVIRGGNNQGTYVCKELVYAYAMWISPSFHLKVIRTFDMV | not soluble
3 | MLSIKGKKWRNWTGNVEGTPHYTMYPESIQDVVEVVGLARKKGKKIRVVGSGHSFTPLVQTEEVLVSLDELKGIVNIDAEKMVAEVWAGTKLYDLGKLLEEKGYAQENLGDIDSQSIAGAISTGTHGTGITFGSLSTQVIEITAVLSNGESIVCSETENVEYWRAFQLSLGMLGIIVKIKLKVIPAYSLVYESEKQSLSTVMNKLEEYKKHRHFEFFVFPYSDEVQVKLTNETTNTGSDLKWHKLKVELLENRMFSLLSKGCKWFPSISKGVSRLSAKAVPNTKIIGPSYEVFATSRTVPFYEMEYSIPSKYMRTVVEEISNLIEKKKYKVHFPIECRYVKGDDIWLSPAYGRDSAYIAVHMYKGMKYAAYFGEVEKIFLKYEGRPHWGKMHTLSYEQLQDIYPEFHSFLQARKSLDELGMFFNPYAEKLFIPLFAGQ | not soluble
4 | GGSGGTSTAGNPNVNVPNNQITAKSKKEFIQQAMPIAKAIEEKWGVPAEVVIAQAALESGWGKHVKGNAYFGIKGKGSQGSINFGTHEVINGKKISINDNFASYGGFGDAANGYGEFLNKNKRYREAFKHKDNPVEFAKAIARAGYATDPDYANKLTKIIQSNKF | not soluble
5 | MMVKSFTPPSSQSSVQDSGNSKLSVIEVVPENGIGALVSSSPTILRTTQAEPEILRYDPVEILAHYENKLLQVLRRTLAVLQPTLSYVFGLWLDNKRGVKVKNDRSRAIQLRELLTKLGPAYIKIGQALSTRPDLVPPVYLEELTRLQDQLPAFPNEIAYQFIEEELGAKPEEIYAEVSPEPIAAASLGQVYKGKLKTGEEVAIKVQRPDLREIITIDLYILRRLAGWVQRKVKRVRSDLVGILDELGDRIFEEMDYIHEGENAERFFELYGHIQDIYVPKIYWEYTNRRVLTMEWIKGIKLTQTSEIKELGIDARYLIEVGVQCSLRQLLEHGFFHADPHPGNLLATFDGKLAYLDFGMMSEIRPPQRYGLIEAIVHVVNRDFDSLAQDYVKLEFLSPETDLTPIIPAFGKVFANAQGASVAELNIKSITDDLSALMYEYPFRVPPYYALIIRSLVTLEGIAIYIDPNFKVLSEAYPYVSKRLLTDPADELRTSLRDLLFKMVNSGGIV | not soluble
6 | MGSDKIHHHHHHMKNLPSLKNLYYLVHLHQEQNFNRAAKMCFVSQSTLSSGIQNLEEQLGYQLIERDHKSFMFTAIGEEVVERARNILTNVDDLVELVKNQGEPMTGEIRLGCIPTIAPFLLSRVVKLCQQDYPKLSLLLKEDTTERLLDALAKGELDLLILALPVDTSGFHSMKVGIDPFKMVMHKEVSQQFLQPIDYQKMPDESIFLLQAEHCITGHAITACQLGDSAKINPFAATSLHTLVQMVNSKLGTTFLPQMAIDTGILTDTDLVAMDPPGEAPYRDIGLVWRQTTSRISTFRTLGLAIQQKLLAQSLPS | not soluble
7 | PIGKATDNMYSYLALLQDDPTIQIVNQAQKAYVEKVAPSIAAMAGLPILSAGAPFKAGGRKNDPTGYTEVNKGKLTFRNAADLYLYPNTLVVVKATGEQLKEWLECSAGMFKQIDPTSDKPQSLIDWEGFRTYNFDVIDGVNYEYDLTKPARYDGECKLINPESHRVVNLTYQGKPVDPKAEFLIATNNYRAYGNKFPGTGDKHIVYASPDESRQILADYIKATSEKEGSVNPNADKNWRFVPI | not soluble
